These results are taken from paper doi:10.1101/2025.11.06.685569 (bioRxiv, 2025).

Broadly, the Kd is the equilibrium constant for the complex coming apart. A high value points to weaker binding. As a reminder, the stoichiometry N is the number of molecules, sites or subunits per partner or assembly.

Sequences and labels used below:
B1: FLAG-tagged Atg9^CTR (domain or fragment, S. cerevisiae, UniProt Q12142 758-997, looked up)
chain: ENSEYVDGLGYVCKYAMFNMKNIDGEDTHSMDEDSLTKKIAVNGSHTLNSKRRSKFTAEDHSDKDLANNKMLQSYVYFMDDYSNSENLTGKYQLPAKKGYPNNEGDSFLNNKYSWRKQFQPGQKPELFRIGKHALGPGHNISPAIYSTRNPGKNWDNNNNGDDIKNGTNNATAKNDDNNGNNDHEYVLTESFLDSGAFPNHDVIDHNKMLNSNYNGNGILNKGGVLGLVKEYYKKSDVGR
B3: Myc-tagged Atg23 (natural protein, S. cerevisiae, UniProt Q06671 1-453, looked up)
chain: MELNQVLEKKEQILQYLGTLVGLHEKALSDVNSASQVTSIRKDITICLNDLCRINDLLVSHDGLLKREIGSLLRDKQELLELNEREQLLWKERKSWHIKQETDAAPADYVIDKDAIITISSHHRTSLNKYIESVGAENTILSNTDDSDAMIEEVQNAESSADQMIRNYKLLQLSHKQAKSEIIRLETLLRDFKKDNKFIEEELKRQSGRIRSEMGNIDFHLSKIEESKHQLMKRIGFESPLTQEKSLSEKIFNLRLSSADEDYNERQTINMKNFVHMKDLIELKIEDLQEQLMRNKNESSTVLTQRELWLDCQKKVGDLESKLITKLRSSSNSKIPPNEMSEMINSTIQYLNNLLDSSDEKLTTTLISNERDVLSKACEELHSESTTAQDGSSALPSKPIDIHKSHKGSNASSNLKQPSTPSFLVASKSPPKIGISESVVNANKNDAISKKVE
B4: untagged Atg23 (natural protein, S. cerevisiae, UniProt Q06671 1-453, looked up)
chain: MELNQVLEKKEQILQYLGTLVGLHEKALSDVNSASQVTSIRKDITICLNDLCRINDLLVSHDGLLKREIGSLLRDKQELLELNEREQLLWKERKSWHIKQETDAAPADYVIDKDAIITISSHHRTSLNKYIESVGAENTILSNTDDSDAMIEEVQNAESSADQMIRNYKLLQLSHKQAKSEIIRLETLLRDFKKDNKFIEEELKRQSGRIRSEMGNIDFHLSKIEESKHQLMKRIGFESPLTQEKSLSEKIFNLRLSSADEDYNERQTINMKNFVHMKDLIELKIEDLQEQLMRNKNESSTVLTQRELWLDCQKKVGDLESKLITKLRSSSNSKIPPNEMSEMINSTIQYLNNLLDSSDEKLTTTLISNERDVLSKACEELHSESTTAQDGSSALPSKPIDIHKSHKGSNASSNLKQPSTPSFLVASKSPPKIGISESVVNANKNDAISKKVE
B8: FLAG-tagged Atg9^NTR (domain or fragment, S. cerevisiae, UniProt Q12142 1-318, looked up)
chain: MERDEYQLPNSHGKNTFLSRIFGLQSDEVNPSLNSQEMSNFPLPDIERGSSLLHSTNDSREDVDENDLRVPESDQGTSTEEEDEVDEEQVQAYAPQISDGLDGDHQLNSVTSKENVLETEKSNLERLVEGSTDDSVPKVGQLSSEEEEDNEFINNDGFDDDTPLFQKSKIHEFSSKKSNTIEDGKRPLFFRHILQNNRPQRDTQKLFTSSNAIHHDKDKSANNGPRNINGNQKHGTKYFGSATQPRFTGSPLNNTNRFTKLFPLRKPNLLSNISVLNNTPEDRINTLSVKERALWKWANVENLDIFLQDVYNYYLGNG

The target of data set [1] is B1. Description: pull-down.
In the data set “untagged Atg23” the target is B4. The experiment in a line: ITC. (In general: Isothermal titration calorimetry measures the heat released or taken up as one component is titrated into another.)
The target in data set [2] is T1, Atg23^Y16A_K42A_D43A_E380A mutant (S. cerevisiae, UniProt Q06671 1-453, Y16A | K42A | D43A | E380A).
T1 sequence (looked up): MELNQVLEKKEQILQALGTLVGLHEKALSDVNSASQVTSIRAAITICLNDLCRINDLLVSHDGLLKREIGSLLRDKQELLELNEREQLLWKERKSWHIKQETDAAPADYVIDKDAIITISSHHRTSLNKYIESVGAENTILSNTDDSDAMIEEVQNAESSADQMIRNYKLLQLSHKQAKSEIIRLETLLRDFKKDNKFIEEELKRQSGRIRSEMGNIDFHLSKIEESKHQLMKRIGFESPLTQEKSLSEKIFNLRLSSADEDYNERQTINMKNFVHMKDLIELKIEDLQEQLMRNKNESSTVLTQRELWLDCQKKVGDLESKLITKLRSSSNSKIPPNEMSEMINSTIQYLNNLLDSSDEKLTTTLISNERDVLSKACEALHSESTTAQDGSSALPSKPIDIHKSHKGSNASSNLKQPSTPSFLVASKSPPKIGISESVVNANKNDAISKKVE
Description: pull-down.

The target of data set [3] is T2, Atg23 (no tag named in the legend) (S. cerevisiae, UniProt Q06671 1-453).
T2 sequence (looked up): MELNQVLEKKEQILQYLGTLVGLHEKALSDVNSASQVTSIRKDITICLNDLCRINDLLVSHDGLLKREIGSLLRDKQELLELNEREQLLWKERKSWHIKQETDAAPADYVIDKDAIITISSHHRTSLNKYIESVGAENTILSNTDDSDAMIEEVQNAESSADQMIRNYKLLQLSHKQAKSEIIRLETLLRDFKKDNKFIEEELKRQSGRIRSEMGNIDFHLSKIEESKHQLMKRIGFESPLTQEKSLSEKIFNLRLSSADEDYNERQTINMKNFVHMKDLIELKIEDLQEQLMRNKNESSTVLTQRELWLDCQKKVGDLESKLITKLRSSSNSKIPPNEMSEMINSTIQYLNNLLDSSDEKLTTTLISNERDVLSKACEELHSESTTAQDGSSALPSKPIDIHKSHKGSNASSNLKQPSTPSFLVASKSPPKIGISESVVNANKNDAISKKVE
The experiment in a line: pull-down.

The data set “mass photometry” concerns the molecule itself. Description: mass photometry.
The target of the data set “FLAG-tagged Atg9^NTR” is B8. Description: ITC.
For data set [4], the target named is B1. Description: ITC.
For the data set “Myc-tagged Atg23”, the target named is B3. The experiment in a line: pull-down.
The next data set addresses T3, FLAG-tagged Atg23 (S. cerevisiae, UniProt Q06671 1-453).
T3 sequence (looked up): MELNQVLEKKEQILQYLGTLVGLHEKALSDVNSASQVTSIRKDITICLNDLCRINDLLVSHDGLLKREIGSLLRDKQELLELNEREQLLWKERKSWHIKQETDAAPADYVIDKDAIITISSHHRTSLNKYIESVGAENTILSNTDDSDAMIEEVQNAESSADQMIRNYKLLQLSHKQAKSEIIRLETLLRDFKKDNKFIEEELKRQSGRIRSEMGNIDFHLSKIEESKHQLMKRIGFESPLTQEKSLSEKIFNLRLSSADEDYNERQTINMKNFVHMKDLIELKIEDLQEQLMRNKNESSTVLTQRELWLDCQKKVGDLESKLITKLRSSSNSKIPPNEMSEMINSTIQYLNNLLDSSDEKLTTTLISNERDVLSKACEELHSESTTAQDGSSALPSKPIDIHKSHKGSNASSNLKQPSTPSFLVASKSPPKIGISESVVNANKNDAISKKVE
Description: pull-down.

TRGGSFQDFRAEFIQRSTQFLTSLPEFCKEVVSRILGRSTAQRGGYSAV (domain or fragment, S. cerevisiae, UniProt P46989 223-271, looked up) [SUMO*-Atg27^CTR-StrepII^2x]: the binding result with FLAG-tagged Atg9^CTR [1] was “binds”.
For B1, binding with untagged Atg23 was put at a Kd of 0.54 ± 0.08 µM. Further, in data set [2], the binding result is reported as “binds”.

B2: FLAG-tagged Atg9^CTR_S948D_S969D (domain or fragment, S. cerevisiae, UniProt Q12142 758-997, looked up)
chain: ENSEYVDGLGYVCKYAMFNMKNIDGEDTHSMDEDSLTKKIAVNGSHTLNSKRRSKFTAEDHSDKDLANNKMLQSYVYFMDDYSNSENLTGKYQLPAKKGYPNNEGDSFLNNKYSWRKQFQPGQKPELFRIGKHALGPGHNISPAIYSTRNPGKNWDNNNNGDDIKNGTNNATAKNDDNNGNNDHEYVLTEDFLDSGAFPNHDVIDHNKMLNDNYNGNGILNKGGVLGLVKEYYKKSDVGR
B2: the binding result in data set [3] was “binds”.
For the molecule B3, the “stoichiometry N” value in “mass photometry” worked out at 2.
Turning to B4, the “stoichiometry N” value with FLAG-tagged Atg9^NTR and with FLAG-tagged Atg9^CTR [4] was roughly 1 in each case.

B5: FLAG-tagged Atg9^CTR_Y989F_Y990F (domain or fragment, S. cerevisiae, UniProt Q12142 758-997, looked up)
chain: ENSEYVDGLGYVCKYAMFNMKNIDGEDTHSMDEDSLTKKIAVNGSHTLNSKRRSKFTAEDHSDKDLANNKMLQSYVYFMDDYSNSENLTGKYQLPAKKGYPNNEGDSFLNNKYSWRKQFQPGQKPELFRIGKHALGPGHNISPAIYSTRNPGKNWDNNNNGDDIKNGTNNATAKNDDNNGNNDHEYVLTESFLDSGAFPNHDVIDHNKMLNSNYNGNGILNKGGVLGLVKEFFKKSDVGR
On to B5, for which, in the data set with Myc-tagged Atg23, the binding result is “binds”.

B6: FLAG-tagged Atg9^CTR_S948A_S969A (domain or fragment, S. cerevisiae, UniProt Q12142 758-997, looked up)
chain: ENSEYVDGLGYVCKYAMFNMKNIDGEDTHSMDEDSLTKKIAVNGSHTLNSKRRSKFTAEDHSDKDLANNKMLQSYVYFMDDYSNSENLTGKYQLPAKKGYPNNEGDSFLNNKYSWRKQFQPGQKPELFRIGKHALGPGHNISPAIYSTRNPGKNWDNNNNGDDIKNGTNNATAKNDDNNGNNDHEYVLTEAFLDSGAFPNHDVIDHNKMLNANYNGNGILNKGGVLGLVKEYYKKSDVGR
Regarding B6, in the data set with Myc-tagged Atg23, the binding result was “binds”.

B7: Myc-Atg9^CTR_939-997-StrepII^2x (domain or fragment, S. cerevisiae, UniProt Q12142 939-997, looked up)
chain: NDHEYVLTESFLDSGAFPNHDVIDHNKMLNSNYNGNGILNKGGVLGLVKEYYKKSDVGR
B7: the binding result with FLAG-tagged Atg23 is “binds”.
As to B8, in the data set with untagged Atg23, the Kd was found to be 6.7 ± 1.2 µM.
